Measured values taken from patent US20140335120A1.

Columns and labels:
[1] = target: PSA65-74 peptide presented by H-2Db (PSA65-74 H-2Db tetramer; EL4 cells pulsed with H-2Db peptide) (human) (UniProt P07288); assay: PSA tetramer staining of splenocytes on day 6 after the boost, flow cytometry
[2] = target: PSA65-74 peptide presented by H-2Db (PSA65-74 H-2Db tetramer; EL4 cells pulsed with H-2Db peptide) (human) (UniProt P07288)

Row | percent PSA tetramer+CD8+CD62Llow cells [1] [%] | percentage of CD8+CD62Llow IFN-γ secreting cells (intracellular cytokine staining after 5 h stimulation with PSA peptide) [2] [fold] | Substance
1 | 23 |  | splenocytes (PSA-specific CD8+ T cells / CTLs) of C57BL/6 mice immunized with LmddA-LLO-PSA
2 |  | 200 | splenocytes (PSA-specific CD8+ T cells / CTLs) of C57BL/6 mice immunized with LmddA-LLO-PSA (cells without a defined receptor)
